These results are taken from patent publication WO2021241730A1 (dated 2021).

The target in assay [1] is T1, human IL-22BP (Isoform 2)-His (human, UniProt Q969J5 22-263).
T1 construct: Expressed in FreeStyle 293F cells and purified from the culture supernatant; also called human IL-22BP-His
T1 sequence: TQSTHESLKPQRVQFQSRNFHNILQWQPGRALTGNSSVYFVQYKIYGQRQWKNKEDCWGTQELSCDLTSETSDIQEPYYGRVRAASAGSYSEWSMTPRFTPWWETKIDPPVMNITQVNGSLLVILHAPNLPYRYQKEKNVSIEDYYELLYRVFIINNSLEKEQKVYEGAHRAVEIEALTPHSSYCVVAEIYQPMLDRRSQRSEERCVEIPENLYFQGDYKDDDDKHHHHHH
The experiment in a line: direct ELISA on coated human IL-22BP-His, purified rat antibody. (An ELISA detects its analyte on a solid surface through an enzyme-linked reagent.)

For another assay, the target named is T2, monkey IL-22BP-His (monkey).
T2 chain: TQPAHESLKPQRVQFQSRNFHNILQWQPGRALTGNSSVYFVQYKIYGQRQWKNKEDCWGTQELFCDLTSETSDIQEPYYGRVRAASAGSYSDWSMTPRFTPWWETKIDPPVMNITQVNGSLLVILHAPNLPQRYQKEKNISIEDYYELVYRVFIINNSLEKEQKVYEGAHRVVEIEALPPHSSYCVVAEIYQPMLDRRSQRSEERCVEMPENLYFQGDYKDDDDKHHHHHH
Briefly: direct ELISA on coated monkey IL-22BP-His, purified rat antibody.

For assay [2], the target named is T3, mouse IL-22BP-His (mouse, UniProt Q80XF5 21-230).
T3 chain: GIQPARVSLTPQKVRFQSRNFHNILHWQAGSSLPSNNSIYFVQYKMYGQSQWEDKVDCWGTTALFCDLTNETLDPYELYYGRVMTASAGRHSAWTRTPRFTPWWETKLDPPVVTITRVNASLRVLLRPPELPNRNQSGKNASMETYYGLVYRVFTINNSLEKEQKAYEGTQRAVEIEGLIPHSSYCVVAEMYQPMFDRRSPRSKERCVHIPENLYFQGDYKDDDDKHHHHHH
The experiment in a line: direct ELISA on coated mouse IL-22BP-His.

Assay [3] has as its target T1, human IL-22BP (Isoform 2)-His. Briefly: direct ELISA screen on coated human IL-22BP-His, then competition ELISA with IL-22; hybridoma supernatant.
The target is the same in assay [4]. Briefly: competition ELISA on captured human IL-22BP-His, IL-22 as competitor; weaker inhibitory tendency than cMAb3 and the hMAb3 antibodies.
In assay [5] the target is T3, mouse IL-22BP-His. The experiment in a line: direct ELISA on coated mouse IL-22BP-His, purified rat antibody.
In assay [6] the target is T1, human IL-22BP (Isoform 2)-His. Briefly: competition ELISA on captured human IL-22BP-His, IL-22 as competitor; stronger inhibitory tendency than cMAb4 and the hMAb4 antibodies.

B1: rat anti-human IL-22BP antibody rMAb20 (antibody, rat IgG1, V domains shown)
VH: QVQLKESGPGLVQPSQTLSLACTVSGFSLTTYHVHWVRQPSGEGLEWMGVIWTGGSTEYNSALKPRLSISRDTSKSQVFLKMNVLQTEDTATYYCARESRGRRIFDYWGQGVMVTVSS
VL: DIQMTQSPSVLSASVGDRVTLNCKASQNINKYLNWYQQKLGEAPKLLIYNTNNLQTGIPSRFSGSGSGTDYTLTISSLQPEDFGTYFCFHHNSWPLTFGSGTKLEIKR
notes: Rat IgG1, kappa chain, from hybridoma
For B1, the binding result in assay [1] is reported as “binds”; with monkey IL-22BP-His it was “binds”; with mouse IL-22BP-His [2] it was “no binding”.

B2: rat anti-human IL-22BP antibody rMAb4 (antibody, rat IgG1, V domains shown)
VH: EVQLVESGGGLVQPGRSLKLSCAASGFTYSNYVMAWVRQAPTKGLEWVASISTGGGNTSYRDSVKGRFTISRDNAKNTLYLQMDSLRSEDTATYYCANVSPTEGMDYWGQGVMVTVSS
VL: DIVMTQGALPNPVPSGESVSITCRSSKSLLYSNGKTYLNWYLQRPGQSPQLLIYWMSTRASGVSDRFSGGGSGTDFTLKISGVEAEDVGVYYCQQGLELPLTFGSGTKLEIKR
notes: as for B1
On to B2, for which the binding result in the assay with monkey IL-22BP-His is “binds”; in the assay with mouse IL-22BP-His [2] it was “no binding”; in assay [3] it was “binds”.

B3: human chimeric anti-human IL-22BP antibody cMAb4 (antibody, human IgG1, kappa, V domains shown)
VH: EVQLVESGGGLVQPGRSLKLSCAASGFTYSNYVMAWVRQAPTKGLEWVASISTGGGNTAYRDSVKGRFTISRDNAKNTLYLQMDSLRSEDTATYYCARVSPTEGMDYWGQGVMVTVSS
VL: DIVMTQGALPNPVPSGESVSITCRSSKSLLYSNGKTYLNWYLQRPGQSPQLLIYWMSTRASGVSDRFSGGGSGTDFTLKISGVEAEDVGVYYCQQGLELPLTFGSGTKLEIKR
notes: Rat variable regions on human IgG1 / kappa constant regions
Take B3: in assay [4], the binding result is “binds”.

B4: humanized anti-human IL-22BP antibody hMAb4_H03L01 (antibody, human IgG1, kappa, V domains shown)
VH: EVQLVESGGGLVQPGGSLRLSCAASGFTYSNYVMAWVRQAPGKGLEWVASISTGGGNTAYRDSVKGRFTISRDNSKNTLYLQMNSLRAEDTAVYYCARVSPTEGMDYWGQGTLVTVSS
VL: DIVMTQGPLSLPVTPGEPASISCRSSKSLLYSNGKTYLNWYLQKPGQSPQLLIYWMSTRASGVPDRFSGGGSGTDFTLKISRVEAEDVGVYYCQQGLELPLTFGQGTKVEIKR
notes: Human IgG1 / kappa
Take B4: the binding result in assay [4] was “binds”.

B5: humanized anti-human IL-22BP antibody hMAb4_H03L03 (antibody, human IgG1, kappa, V domains shown)
VH: EVQLVESGGGLVQPGGSLRLSCAASGFTYSNYVMAWVRQAPGKGLEWVASISTGGGNTAYRDSVKGRFTISRDNSKNTLYLQMNSLRAEDTAVYYCARVSPTEGMDYWGQGTLVTVSS
VL: DIVMTQGPDSLAVSLGERATITCRSSKSLLYSNGKTYLNWYQQKPGQPPKLLIYWMSTRASGVPDRFSGGGSGTDFTLTISSLQAEDVAVYYCQQGLELPLTFGQGTKVEIKR
notes: Human IgG1 / kappa
In the case of B5, in assay [4], the binding result is on record as “binds”.

B6: humanized anti-human IL-22BP antibody hMAb4_H02L05 (antibody, human IgG1, kappa, V domains shown)
VH: EVQLVESGGGLVQPGGSLRLSCAASGFTYSNYVMAWVRQAPGKGLEWVSSISTGGGNTAYRDSVKGRFTISRDNSKNTLYLQMNSLRAEDTAVYYCARVSPTEGMDYWGQGTLVTVSS
VL: DIQMTQSPSSLSASVGDRVTITCRSSKSLLYSNGKTYLNWYQQKPGKSPKLLIYWMSTRASGVPDRFSGGGSGTDFTLTISSLQPEDFATYYCQQGLELPLTFGQGTKVEIKR
notes: Human IgG1 / kappa
As to B6, the binding result in assay [4] is reported as “binds”.

B7: rat anti-human IL-22BP antibody rMAb8 (antibody, rat IgG2a, V domains shown)
VH: QVQLKESGPGLVQPSQTLSLTCTVSGFSLSSYTVSWVRQPPGKGLDWIAAISSGGSTYYNSALKSRLTISRDTSKSQVFLKMNSLQTEDTAMYFCARSTGDYWGQGVMVTVSS
VL: DIQMTQSPSLLSASVGDRVTLNCKASQSIYKNLAWYQQKLGEAPKLLIYSAKSLQTGTPSRFSGSGSGTDFTLTISSLQPEDVATYFCHQYYSGWTFGGGTKLELKR
notes: Rat IgG2a, kappa chain, from hybridoma
As for B7, the binding result (in assay [1]; with mouse IL-22BP-His [5]; with monkey IL-22BP-His) was “binds” each time.

B8: rat anti-human IL-22BP antibody rMAb14 (antibody, rat IgG1, V domains shown)
VH: QVQLKESGPGLVQPSQTLSLTCTVSGFSLTSYTVSWVRQPPGKGLEWIAAISSGGSTYYNSALKSRLSISRDTSKSQVFLKMSSLQTEDAAMYFCARSTGDYWGQGVMVTVSS
VL: DIQMTQSPSLLSASVGDRVTLNCKASQNIYKNLAWYQQKLGETPRLLIYSANRLQTGIPSRFSGSGSGTDFTLTISSLQPEDVATYFCHQYYSGWTFGGGTKLELKR
notes: as for B1
Consider B8, for which the binding result (in assay [1]; with mouse IL-22BP-His [5]; with monkey IL-22BP-His) was “binds” each time.

B9: rat anti-human IL-22BP antibody rMAb81 (antibody, rat IgG1, V domains shown)
VH: EVQLVESGGGLVQPGRSLKLSCLASGFTFSNYGMNWIRQAPGKGLEWVATISSGSSYIYYADTVKGRFTISRENARNTLYLQMTSLRSEDTAFYYCARPLTGAFDYWGQGVMVTVSS
VL: DIVLTQSPALAASLGQRATISCRASQSVSTSSHNLMHWYQQKPGHQPKLLIYAASNLASSIPARFSGSGSGTDFTLTINPVQADDIATYYCQQSRELPLTFGSGTKLEIKR
notes: as for B1
As to B9, the binding result in assay [1] is reported as “binds”; in the assay with monkey IL-22BP-His it was “binds”; in the assay with mouse IL-22BP-His [2], “no binding”.

B10: rat anti-human IL-22BP antibody rMAb3 (antibody, rat IgG1, V domains shown)
VH: EVQLQQSGAELVRPGTSVKLSCKLSGGTISAYFIHFVKQRPGQGLEWIGRIDPEDDSTEYAEKFKNKATLTADTSSNTAYLILGSLTSDDTATYFCTTGSDYWGQGVMVTVSS
VL: DVVMTQTPVSLSLAIGQPASISCKSSQSLLGTSGKTFLNWILQRPGQSPKRLIYQVSKLYSGVPDRFSGSGSETEFTLKISRVEAEDLGVYYCWQGTLFPRTFGGGTKLEVKR
notes: as for B1
Consider B10, for which the binding result was “binds” with monkey IL-22BP-His, “no binding” with mouse IL-22BP-His [2] and “binds” in assay [3].

B11: humanized anti-human IL-22BP antibody hMAb3_H01L03 (antibody, human IgG1, kappa, V domains shown)
VH: EVQLVQSGAEVKKPGASVKVSCKASGGTISAYFIHWVRQAPGQGLEWMGRIDPEDDSTEYAQKFQGRVTITADTSTNTAYMELSSLRSEDTAVYYCTTGSDYWGQGTLVTVSS
VL: DVVMTQTPVSLPVTLGQPASISCKSSQSLLGTSGKTFLNWIQQRPGQSPKRLIYQVSKLYSGVPDRFSGSGSGTDFTLKISRVEAEDVGVYYCWQGTLFPRTFGGGTKVEIKR
notes: Human IgG1 / kappa
For B11, the binding result in assay [6] is recorded as “binds”.

B12: human chimeric anti-human IL-22BP antibody cMAb3 (antibody, human IgG1, kappa, V domains shown)
VH: EVQLQQSGAELVRPGTSVKLSCKLSGGTISAYFIHFVKQRPGQGLEWIGRIDPEDDSTEYAEKFKNKATLTADTSSNTAYLILGSLTSDDTATYFCTTGSDYWGQGVMVTVSS
VL: DVVMTQTPVSLSLAIGQPASISCKSSQSLLGTSGKTFLNWILQRPGQSPKRLIYQVSKLYSGVPDRFSGSGSETEFTLKISRVEAEDLGVYYCWQGTLFPRTFGGGTKLEVKR
notes: as for B3
On to B12, for which the binding result in assay [6] is given as “binds”.

B13: humanized anti-human IL-22BP antibody hMAb3_H04L03 (antibody, human IgG1, kappa, V domains shown)
VH: EVQLVQSGAEVKKPGASVKVSCKLSGGTISAYFIHFVRQAPGQGLEWMGRIDPEDDSTEYAQKFQGRVTLTADTSTNTAYLELSSLRSEDTAVYFCTTGSDYWGQGTLVTVSS
VL: DVVMTQTPVSLPVTLGQPASISCKSSQSLLGTSGKTFLNWIQQRPGQSPKRLIYQVSKLYSGVPDRFSGSGSGTDFTLKISRVEAEDVGVYYCWQGTLFPRTFGGGTKVEIKR
notes: Human IgG1 / kappa
As to B13, in assay [6], the binding result is listed as “binds”.

B14: humanized anti-human IL-22BP antibody hMAb3_H01L04 (antibody, human IgG1, kappa, V domains shown)
VH: EVQLVQSGAEVKKPGASVKVSCKASGGTISAYFIHWVRQAPGQGLEWMGRIDPEDDSTEYAQKFQGRVTITADTSTNTAYMELSSLRSEDTAVYYCTTGSDYWGQGTLVTVSS
VL: DVVMTQSPLSLPVTLGQPASISCKSSQSLLGTSGKTFLNWIQQRPGQSPKRLIYQVSKLYSGVPDRFSGSGSGTEFTLKISRVEAEDVGVYYCWQGTLFPRTFGGGTKVEIKR
notes: Human IgG1 / kappa
Turning to B14, the binding result in assay [6] was “binds”.
